Data on one molecule can be found in patent US20040170622A1, “Methods and compositions for modulating XBP-1 activity” (President and Fellows of Harvard College, priority 2002, published 2004).

Where two headings read alike, the source gives them in different places.

The subject of the assay is XBP-1 and ATF6α. Description: UPRE (5×ATF6GL3) reporter in MEF cells with dominant negative XBP-1. It is filed as cell-based. The procedure: (A) The 5×ATF6GL3 reporter plasmid was cotransfected with either pCGNATF6α or XBP-u/s plasmids into MEF cells with or without the dominant negative XBP-1 expression plasmid. 100 ng DNA was used for each transfection except for pCDNA3.1, which was added to give 1 μg of DNA in total. Luciferase assays were performed as described in the legend to FIG. 18.(B) MEF and MEF-dn-XBP cells that stably express dominant negative XBP-1 protein were treated with 10 μg/ml Tm for the indicated time periods. Total RNAs were isolated and subjected to Northern blot analysis. The same blot was hybridized sequentially with BiP, CHOP, ERdj4, p58^ipk and ATF6α probes. Ethidium bromide staining of the gel before blotting is shown at the bottom as loading control.
To make 4×XBPGL3, two complementary oligonucleotides containing the XBP-1 binding site 5^f-CGCG(TGGATGACGTGTACA)4-3′ (SEQ ID NO: 12) and 5′-GATC(TGTACACGTCATCCA)4-3^f (SEQ ID NO: 13) were annealed and ligated to the—40-Luc plasmid (Lee et al. 2000. Biochem J. 350 Pt1:131-138) digested by Mlu I and Bgl II. The UPRE reporter was constructed by inserting an annealed oligonucleotide containing two UPRE motifs (Roy and Lee 1999 Nucleic Acids Res. 27:1437), 5′-cgcgtcaCCAATcggaggcctCCACGaccaCCAATcggaggcctCCACGac-3′, (SEQ ID NO: 14) to the 40-Luc plasmid between the Mlu I and Xho I sites (Lee et al. 2000. Biochem J. 350 Pt1:131-138). UPRE reporter (5×ATF6GL3), pCGNATF6 and pCGNAF6 (1-373) were previously described (Wang et al. 2000. J. Biol. Chem. 275:27013). The pCDNA3.1 ([…]) driven expression vectors for mouse XBP-1s and XBP-1u/s were described elsewhere (Iwakoshi et al. 2003. Nature Immunology 4:321). pCDNA-dn-XBP was constructed by removing the region downstream of the Eco RV site of XBP-1s cDNA in the pCDNA-XBP-1s plasmid. TREhyg-XBP-1s and TREhyg-dn-XBP were constructed by inserting the XBP-1s cDNA and DN-XBP, respectively, into TRE2 hyg (Clontech) between the Pvu II and Sal I sites. […]

B1: dn-XBP: dominant negative XBP-1 containing the N-terminal 188 aa, lacking transactivation domain, retaining leucine zipper (protein)
chain: MVVVAAAPSAATAAPKVLLLSGQPASGGRALPLMVPGPRAAGSEASGTPQARKRQRLTHLSPEEKALRRKLKNRVAAQTARDRKKARMSELEQQVVDLEEENHKLQLENQLLREKTHGLVVENQELRTRLGMDTLDPDEVPEVEAKGSGVRLVAGSAESAAGAGPVVTSPEHLPMDSDTVASSDSESD
With B1, the “transactivation of the UPRE reporter by ATF6α / function of ATF6” value was “inhibited the transactivation of the UPRE reporter by ATF6α” and the “transactivation of the UPRE reporter by XBP-1s” value was “completely abolished transactivation of the UPRE reporter by XBP-1s”. Moreover, the “transactivation of the UPRE reporter by ATF6α / function of ATF6” value (listed as dn-XBP-1) is “potently inhibited the function of ATF-6 through heterodimerization”.
